Experimental data from patent publication US11981740B2, “BAFF-R antibodies and uses thereof” (CITY OF HOPE, priority 2016, dated 2024).

Tests used:
[1] = tested on: JeKo-1 (MCL), SU-DHL-6 (DLBCL), Raji (Burkitt lymphoma), and RL (FL); test: Flow cytometry binding to NHL cell lines; parameters: species or system human; conditions: chimeric antibodies conjugated to Alexa Fluor 488
Description: FIGS. 1A, 1B, 1C, 1D and 1E are FACS images showing generation and specificity of novel monoclonal antibodies against human BAFF-R. FIG. 1A is a FACS analysis of cell surface expression of hBAFF-R-GFP fusion protein in mouse fibroblast L cells. Gated on GFP-positive cells, engineered L cell clone (right plot) is compared to parental L cells (left plot). Clone D2C was selected for further studies. FIGS. 1B, 1C, 1D and 1E are FACS traces of fluorescent counts of anti-BAFF-R antibodies binding cell lines and patient samples. […] BAFF-R-negative 293T embryonic kidney cell line was used as a control. […] Parental L cells and secondary anti-hIgG-APC antibodies only were used as controls. […] The data are representative of three independent experiments. For all of FIGS. 1B-1E, the traces from top to bottom as shown in the figures correlate with the variables (e.g., antibody type or cell type) used from top to bottom shown below or next to the figures.
FIG. 10 are results of FACS analyses showing hBAFF-R mAbs recognized non-Hodgkin lymphoma cell lines in vitro. […] The traces from top to bottom as shown in the figures correlate with the variables (e.g., antibody type or cell type) used from top to bottom shown next to the figures.

[2] = tested on: BAFF-R-expressing L cells and JeKo-1; test: ADCC chromium-51 release assay, L cells, JeKo-1, U266; format: cell-based; conditions: NK cells E:T 20:1; BAFF-R positive vs negative targets
Procedure: Antibody-induced cytotoxicities measured by chromium-51 release after incubation with C55, C90, or rituximab and effectors (NK cells or complement containing serum). NK effector cell to target ratio (E:T) of 20:1. […] Data are shown as the mean±s.d. of triplicate samples. *P<0.05 compared with NK cells by two-tailed Student's t-test.
FIG. 12 is a graph showing chimeric antibodies induced ADCC against BAFF-R expressing L cells. BAFF-R-expressing D2C L cells (targets) were labeled with chromium-51 followed by incubation overnight with chimeric mAb+NK cells (effector to target ratio, 20:1). Culture supernatant was analyzed for released chromium.
(§1) Cytotoxicity assays. Target cells (L cells, human tumor lines, primary patient samples) were labeled with chromium-51 (51Cr, Perkin Elmer, Waltham, MA) for a 51Cr release assay. Briefly, antibodies and effectors (NK cells or complement serum standard [Sigma Aldrich, St. Louis, MO]), were added to labeled target cells and incubated up to 18 hours. NK cells were enriched from PBMC (NK cell enrichment kit, Stemcell Technologies, Vancouver, Canada). 51Cr released into supernatant was detected with a Wizard Automatic Gamma Counter (Perkin Elmer).

Mino cells = test: Antibody internalization by flow cytometry; format: cell-based; conditions: 37° C. for 1 hour
Procedure: Mino cells were incubated with mAb C90 (0.05 μg/10^6 cells) at 4° C. for 20 minutes followed by incubation at 37° C. for 1 hour. Flow cytometry analysis was performed with anti-mouse IgG-APC. Cells were gated for surface localized antibodies (OUT) and loss of cell surface staining (IN).

JeKo-1 MCL cell line = test: In vivo JeKo-1 MCL xenograft, bioluminescence imaging; parameters: species or system NSG mice; conditions: compared with PBS or NK cells alone
Description: (§2) FIG. 4A is a schematic showing treatment schedule following Day 0 tumor challenge with minimum lethal dose of tumors. Treatments were given by IV tail vein injections. FIGS. 4B and 4C are images showing chimeric antibodies targeting human BAFF-R elicited in vivo therapeutic effects against B-cell tumors. Bioluminescence images of mice challenged with luciferase-expressing tumors: JeKo-1 (MCL) (FIG. 4B) or RS4; 11 (ALL) (FIG. 4C). Experimental groups received treatment of chimeric BAFF-R mAbs (C55 or C90, as indicated). Control group mice received PBS, NK cells alone, or rituximab on the same schedule. Data are representative of three independent experiments.
(§3) In vivo studies. For tumor models, stable, luciferase-expressing tumors lines were established for bioluminescent imaging in mouse models. Briefly, a luciferase gene was introduced into tumor lines by a lentivirus gene delivery system (pLenti7.3/V5-DEST Gateway Vector Kit, Life Technologies, Carlsbad, CA). The minimum lethal dose per mouse was determined for each tumor cell line by dose titration. Tumor cells were injected intravenously (IV) and mice were monitored by in vivo bioluminescence imaging for minimum tumor dose to ensure engraftment. Minimum lethal tumor doses were: 1×10^6 JeKo-1, 5×10^5 RS4; 11, 5×10^5 JeKo-1-CD20-KO, or 2.5×10^4 Z-138 cells. […]

[3] = tested on: RS4; 11 (acute lymphoblastic leukemia, ALL); test: In vivo RS4;11 ALL xenograft, bioluminescence imaging; conditions: RS4;11 challenged NSG mice
Description: as §2, §3

[4] = tested on: primary CLL (n=3) and MCL (n=2) samples; test: ADCC on primary samples from rituximab-treated patients; format: cell-based, human; conditions: patients previously treated with rituximab; E:T=20:1
Procedure: FIGS. 3A and 3B are graphs showing BAFF-R monoclonal antibodies induce in vitro Antibody Dependent Cell-Mediated Cytotoxicity (ADCC) against primary B-cell tumors. Antibody-dependent cell-mediated cytotoxicity (ADCC) effects were measured by chromium-51 release after incubation with C55, C90, or rituximab and effectors (NK cells). […] Data are shown as the mean±s.d. of triplicate samples. *P<0.05 compared with NK cells by two-tailed Student's t-test.
as §1

JeKo-1-CD20-KO clone 25 = test: ADCC on rituximab-resistant JeKo-1-CD20-KO; format: cell-based; conditions: E:T=20:1
Procedure: FIGS. 5A, 5B and 5C are images or graphs showing chimeric BAFF-R antibodies induce ADCC on drug resistant lymphoma models in vitro. FIG. 5A is a scatterplot of FACS analysis showing CD20 binding on JeKo-1 cells following CRISPR/HDR knock-out of CD20 gene. CD20 expression on selected CD20−/−clone #25 compared to WT JeKo-1. ADCC effects measured by chromium-51 release after incubation with C55, C90, or rituximab and effectors NK cells (E:T=20:1). Percentage of cell specific lysis of target cells: rituximab-resistant JeKo-1-CD20-KO (FIG. 5B) and ibrutinib-resistant Z-138 and SP49-IR (FIG. 5C). All data are representative of two or more identical experiments. Data are shown as the mean±s.d. of triplicate samples. *P<0.05 compared with NK cells by two-tailed Student's t-test.
as §1
Generation of JeKo-1-CD20-KO. […]

[5] = tested on: JeKo-1-CD20-KO tumor cells; test: In vivo JeKo-1-CD20-KO xenograft; parameters: species or system NSG mice
Description: (§4) FIGS. 6A and 6B are images and FIG. 6C are graphs showing chimeric antibodies targeting human BAFF-R elicited in vivo therapeutic effects against drug resistant B-cell tumors. Bioluminescence images of mice challenged with luciferase-expressing tumors JeKo-1-CD20-KO cells (FIG. 6A) or ibrutinib-resistant Z-138 cells (FIG. 6B) followed by antibody treatments as in FIG. 4. Control group mice received PBS, NK cells alone, or rituximab on the same schedule. […] Tumor free rate and survival differences between experimental and all control groups were analyzed by log-rank test (**P<0.001). Data are representative of three independent experiments.
as §3

[6] = tested on: ibrutinib-resistant Z-138; test: In vivo ibrutinib-resistant Z-138 xenograft; parameters: species or system NSG mice; conditions: Z-138 tumor-bearing mice; compared with PBS or NK only
Description: as §4, §3

B1: C55: chimeric anti-BAFF-R mAb from clone 55 containing human IgG1 constant regions (antibody, V domains shown)
VH: QVTLKESGPGILKPSQTLSLTCSFSGFSLSTSGMGVGWIRQPSGKGLEWLAHIWWDDDKYYNSSLKSHLTISKDTSRNQVFLKITSVDTADTATYYCARSFGYGLDYWGQGTTLTVSSAS
VL: DIQMTQTTSSLSASLGDRVTISCSASQDISNYLNWYQQKPDGTVKLLIYYTSSLHSGVPSRFSGSGSGTDYSLTISSLEPEDIATYYCHQFSELPWTFGGGTKLEIKRT
direct binding to NHL lines [1]: exhibited direct binding | antibody-dependent cell-mediated cytotoxicity (ADCC) [2]: specifically against BAFF-R-expressing L cells and JeKo-1, but not BAFF-R negative L cells nor the BAFF-R negative human multiple myeloma line, U266 | internalization upon binding BAFF-R (Mino cells): limited internalization | tumor growth (JeKo-1 MCL cell line): significant retardation of tumor growth | tumor growth [3]: markedly retarded tumor growth | ADCC killing of primary samples [4]: sensitive to killing by ADCC | sensitivity to antibody-mediated cytotoxicity (JeKo-1-CD20-KO clone 25): retained sensitivity | tumor free and long-term overall survival ([5]; 80-day curves): significant antitumor effects | tumor burden by bioluminescent imaging ([5]; Day 20): no visible tumors | antitumor effects [6]: significant effects were observed
